Where a chain is given by its changes, count along the chain named.
Columns and labels:
[1] = biological target: T1, N-terminal region of human GLP1R-MMH (human); assay: SPR Biacore 4000, mAb captured by anti-human Fc, 37 C
T1 construct: also called hGLP1R-MMH
T1 chain: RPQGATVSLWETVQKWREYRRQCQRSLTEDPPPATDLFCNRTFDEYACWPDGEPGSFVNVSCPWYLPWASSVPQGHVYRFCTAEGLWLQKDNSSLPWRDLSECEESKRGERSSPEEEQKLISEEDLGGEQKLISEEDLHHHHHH
Method: (§1) The equilibrium dissociation constant (KD) for GLP1R binding to selected GLP1R monoclonal antibodies (mAbs) was determined using a real-time surface plasmon resonance biosensor using a Biacore 4000 instrument. All binding studies were performed in 10 mM HEPES, 150 mM NaCl, 3 mM EDTA, and 0.05% v/v Surfactant Tween-20, pH 7.4 (HBS-ET) running buffer at 25° C. and 37° C. The Biacore CM5 sensor chip surface was first derivatized by amine coupling with human Fc specific mouse mAb to capture different GLP1R mAbs. […] At the end of each cycle, the GLP1R mAb capture surface was regenerated using a 12 sec injection of 20 mM phosphoric acid.
(§2) The association rate (kₐ) and dissociation rate (kd) were determined by fitting the real-time binding sensorgrams to a 1:1 binding model with mass transport limitation using Scrubber 2.0 c curve-fitting software.

[2] = biological target: T2, human GLP1R expressed with mouse IgG2a Fc (human); assay: as above
T2 construct: It is probably the N-terminal region, as for hGLP1R-MMH, but the sentence is ambiguous; also called hGLP1R-mFc
T2 chain: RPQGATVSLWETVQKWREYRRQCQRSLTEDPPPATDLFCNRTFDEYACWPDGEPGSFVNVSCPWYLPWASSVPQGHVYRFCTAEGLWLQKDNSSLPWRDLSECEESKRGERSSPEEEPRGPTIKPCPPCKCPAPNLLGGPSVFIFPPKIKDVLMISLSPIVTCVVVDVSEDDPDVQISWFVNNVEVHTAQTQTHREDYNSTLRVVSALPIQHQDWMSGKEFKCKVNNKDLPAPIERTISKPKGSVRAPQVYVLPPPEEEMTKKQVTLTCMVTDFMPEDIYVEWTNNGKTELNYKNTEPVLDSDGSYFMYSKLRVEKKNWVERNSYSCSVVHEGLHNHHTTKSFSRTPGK
Method: as §1
(§3) The association rate (kₐ) and dissociation rate (kd) were determined by fitting the real-time binding sensorgrams to a 1:1 binding model with mass transport limitation using Scrubber 2.0 c curve-fitting software. Binding dissociation equilibrium constant (KD) and dissociative half-life (t½) were calculated from the kinetic rates as:

[3] = biological target: T3, in-line fusion protein of human desA-GLP1 and GLP1R-MMH (human); assay: SPR Biacore 4000, mAb captured by anti-human Fc, 25 C
T3 construct: also called hdesA-GLP1_GLP1R-MMH
T3 chain: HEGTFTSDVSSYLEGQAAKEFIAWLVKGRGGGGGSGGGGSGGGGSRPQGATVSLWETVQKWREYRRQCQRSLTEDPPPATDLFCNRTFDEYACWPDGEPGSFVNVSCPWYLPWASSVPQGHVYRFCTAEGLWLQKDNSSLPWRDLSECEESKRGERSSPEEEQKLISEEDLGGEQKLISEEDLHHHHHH
Method: as §1, §3

mouse GLP1R-MMH [4] = biological target: T4, mouse GLP1R-MMH (mouse); assay: SPR Biacore 4000, mAb captured by anti-human Fc, 37 C
T4 construct: It was injected at 100 nM only; also called mGLP1R-MMH; monomeric mouse GLP1R
T4 chain: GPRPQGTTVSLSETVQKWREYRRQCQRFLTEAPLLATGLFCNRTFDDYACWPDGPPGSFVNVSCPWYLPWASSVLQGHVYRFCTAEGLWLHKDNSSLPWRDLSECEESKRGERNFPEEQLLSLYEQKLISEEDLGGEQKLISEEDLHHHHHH
Method: as §1, §3

mouse GLP1R-MMH [5] = biological target: T4, mouse GLP1R-MMH; assay: SPR Biacore 4000, mAb captured by anti-human Fc, 25 C
Method: as §1, §3

[6] = biological target: T5, macaca fascicularis GLP1R-MMH (macaca fascicularis); assay: as above
T5 construct: also called mfGLP1R-MMH; monomeric cynomolgus GLP1R
T5 chain: T1 chain with S112N
Method: as §1, §2

[7] = biological target: T2, human GLP1R expressed with mouse IgG2a …; assay: as above
Method: as §1, §3

[8] = biological target: T5, macaca fascicularis GLP1R-MMH; assay: SPR Biacore 4000, mAb captured by anti-human Fc, 37 C
Method: as §1, §2

[9] = biological target: T1, N-terminal region of human GLP1R-MMH; assay: SPR Biacore 4000, mAb captured by anti-human Fc, 25 C
Method: as §1, §2

[10] = biological target: full-length human GLP1R on HEK293/CRE-luc/GLP1R cells (human, UniProt P43220 24-463); assay: cell-based or functional assay
[11] = biological target: T3, in-line fusion protein of human …; assay: SPR Biacore 4000, mAb captured by anti-human Fc, 37 C
Method: as §1, §2

B1: mAb37645 (antibody, human IgG4 S228P, kappa, V domains shown)
VH: QVRLQQWGAGLLKPSETLSLTCAVYGGSFSGYFWSWIRQPPGKGLEWIGEINHGGNTNSNPSLKSRVTISVDTSKNQFSLKLSAVIAADTAVYYCARGQYRSGGGYWYFDLWGRGTLVTVSS
VL: EIVLTQSPGTLSLSPGERATLSCRASQSISSVHLAWYQQKPGQAPRLLIYGASSRATGIPDRFSGSGSETDFTLTVSRLEPDDFTMYYCQQYGSSPWTFGQGTKVEIKR
notes: In SPR the mAbs were captured by a human-Fc-specific antibody
In the case of B1, the “100 nM hGLP1R-MMH Bound (RU)” value [1] is reported as 70 RU, the Kd [1] is reported as 18 nM and the koff [1] is reported as 0.00349 s⁻¹. The kon [1] was 195000 M⁻¹ s⁻¹, the t½ [1] was 3.3 min and the “100 nM hGLP1R-mFc Bound (RU)” value [2] was 116 RU. It also gave a Kd [2] of 2.59 nM, a koff [2] of 0.00065 s⁻¹ and a kon [2] of 251000 M⁻¹ s⁻¹. The t½ [2] was 18 min, the “100 nM hdesA-GLP1_GLP1R-MMH Bound (RU)” value [3] was 58 RU and the Kd [3] was 4.32 nM. It also gave a koff [3] of 0.00052 s⁻¹, a kon [3] of 120000 M⁻¹ s⁻¹ and a t½ [3] of 22 min. The “100 nM mGLP1R-MMH Bound (RU)” value (mouse GLP1R-MMH [4]) was 42 RU, the Kd (mouse GLP1R-MMH [4]) was 29.8 nM and the koff (mouse GLP1R-MMH [4]) was 0.00249 s⁻¹. The kon (mouse GLP1R-MMH [4]) was 83600 M⁻¹ s⁻¹, the t½ (mouse GLP1R-MMH [4]) was 4.6 min and the “100 nM mGLP1R-MMH Bound (RU)” value (mouse GLP1R-MMH [5]) was 30 RU. It also gave a Kd (mouse GLP1R-MMH [5]) of 10.8 nM, a koff (mouse GLP1R-MMH [5]) of 0.000617 s⁻¹ and a kon (mouse GLP1R-MMH [5]) of 56900 M⁻¹ s⁻¹. For the same binder, the t½ (mouse GLP1R-MMH [5]) was 19 min, the “100 nM mfGLP1R-MMH Bound (RU)” value [6] was 35 RU and the Kd [6] was 19.6 nM. For the same binder, the koff [6] was 0.000826 s⁻¹, the kon [6] was 42200 M⁻¹ s⁻¹ and the t½ [6] was 14 min. The “100 nM hGLP1R-mFc Bound (RU)” value [7] was 91 RU, the Kd [7] was 1.42 nM and the koff [7] was 0.000183 s⁻¹. For the same binder, the kon [7] was 128000 M⁻¹ s⁻¹, the t½ [7] was 63 min and the “100 nM mfGLP1R-MMH Bound (RU)” value [8] was 42 RU. It also gave a Kd [8] of 55.2 nM, a koff [8] of 0.00384 s⁻¹ and a kon [8] of 69500 M⁻¹ s⁻¹. For the same binder, the t½ [8] was 3 min, the “100 nM hGLP1R-MMH Bound (RU)” value [9] was 60 RU and the Kd [9] was 5.72 nM. For the same binder, the koff [9] was 0.000866 s⁻¹, the kon [9] was 152000 M⁻¹ s⁻¹ and the t½ [9] was 13 min. For the same binder, the “% Inhibition of human GLP1R activation by 40 pM GLP1 (CRE-luciferase reporter)” value [10] was 73%, the “IC50 [M] of inhibition of human GLP1R activation by 40 pM GLP1 (CRE-luciferase reporter)” value [10] was 1.23e-09 M and the “100 nM hdesA-GLP1_GLP1R-MMH Bound (RU)” value [11] was 71 RU. It also gave a Kd [11] of 16.5 nM, a koff [11] of 0.00229 s⁻¹ and a kon [11] of 139000 M⁻¹ s⁻¹. It also gave a t½ [11] of 5 min.
